Reference: article doi:10.1101/2020.09.28.317578
Several values for one entry are separate records, joined by “and”; a condition that tells them apart may be missing. Equal values may be shown once.

Target: AcrIIA22 (wild type, thrombin-cleaved) (Clostridial genus CAG-217 (human gut metagenome; taxonomy inferred by the paper))
Test: SEC

## AcrIIA22 (wild type, thrombin-cleaved) (natural protein)
  stoichiometry N: 4 and 5
